The text below walks through data of article PMC11645210.

This assay addresses Shaanxi2011 RBD (bat sarbecovirus Shaanxi2011). Briefly: SPR.

VIR-7229 Fab fragment had a Kd of 185 nM, a koff of 0.00985 s⁻¹ and a kon of 53500 M⁻¹ s⁻¹.
